Test results reported in article PMC7105676.

What follows are sequences tested against T1, FlhF-His6 (Campylobacter jejuni 81-176?) (UniProt O52908) (assay: EMSA).
T1 sequence: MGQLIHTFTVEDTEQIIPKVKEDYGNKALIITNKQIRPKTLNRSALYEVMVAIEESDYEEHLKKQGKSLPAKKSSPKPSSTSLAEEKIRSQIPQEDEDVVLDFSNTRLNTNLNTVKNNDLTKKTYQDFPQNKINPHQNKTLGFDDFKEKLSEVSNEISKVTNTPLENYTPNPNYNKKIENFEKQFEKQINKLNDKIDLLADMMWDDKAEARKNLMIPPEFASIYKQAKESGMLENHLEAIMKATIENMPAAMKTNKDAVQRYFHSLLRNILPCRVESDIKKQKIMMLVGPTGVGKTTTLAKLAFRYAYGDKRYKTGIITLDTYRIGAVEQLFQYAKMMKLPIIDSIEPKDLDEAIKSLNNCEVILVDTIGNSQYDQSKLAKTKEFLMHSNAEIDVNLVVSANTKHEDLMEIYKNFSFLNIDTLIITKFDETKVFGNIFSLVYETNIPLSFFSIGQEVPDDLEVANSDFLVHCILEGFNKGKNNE
For “AAGCTCTATCAAAAGAAGTTTTAAAAACGCATCCTTATCTAAGGTAGCGTTTGGATTGCTCACTATTCCTGAGCTACTGCTTGAATCTGTTCTAGTTGTCCCACTAGTACTTCCTGAAGAAGTAGTACCTGAAGTTGTAGCAGTGGTATTTAAATTCCAATCCGATGATGATATCATTATAAACTCCTTTTTATTTAGTTTTTTATTATTTAAGCAATAAGTGTTCCAATTATCGTCGACCTGCAGGCA (double strand) [fliK promoter]”, the binding was “no binding”.
With “AATTCATCCTAAGCCTTTTAAAAAATTTCTGCTATGGTATCCAATTTGCGCTTAATTTTGAATTTACTTTTTTTTAAGTATAATAAATTATCGCATTTTGTTCGCCAAATTCCACGGTAAAACGCAAGGGTAAAATTTTGACATAAGTTTCGCTTTGGGCATGTAATAAGTCAGTATTAACAATATCCTTAACACTGATTCTAGCTCCATCGTCGACCTGCAGGCA (double strand) [flgR promoter]” the binding was “no binding”.
For “ATAACGCCATTAATCCCCACTACACCACTTTTACACATATCTTCAGAAATAGCTCTTCTTTTCGTGATATTAACTACATTTAAAAATTTATCTACTCTCATAAAAGCAATTTTAGCAAAAAAAATCAATTTTTGGAACAAAATTTGCTTATGCCTTTGCTTTATTTTTTAAGAAAATAGCAAGTAAAAACTTTTCTTTAATGAAATTTGGATACAATTTTACAATTTTCAAATCTATTTTAACAAAGGATATCGTCGACCTGCAGGCA (double strand) [rpoN promoter]”, the binding was “no binding”.
In the case of “CTTTTAAATCCTTTCAAAATATTGCATCGAAAAGATTAAAGCAAGAAGTGTTCCAAGTTTTAATTTGATTAAAAATTTTAAAGCTTATAAATAAAAAGCCTAGTATTTAAACTAGGCTTGGATTTGTATAAATTGCAGCATTCTTAAAAGAATGTAAAGTGATTTTAAGATTTAACTATTGTAATCGTCGACCTGCAGGCA (double strand) [flaB promoter]”, the binding is reported as “no binding”.
For “TCATTTATCATTCCTCTAATAAAATCTTAAAATCATTCAAATCAAGTAAAAGCAAATTCTGTTCGCATATTTTATCAAATTCCTTGCTAAAACCATTTTTTGAGATTATAATGTAATAATTTGGAGCCAAATTTAAAGACTTTGCTTTTGATTTTAAAAGATTTAAAATATTTTTACAAATTTTTTTATTTTATCGTCGACCTGCAGGCA (double strand) [flgS promoter]”, the binding was “binds”.
In the case of “TGCCTGCAGGTCGACGATAAATATCGACCTAAAGCGTAAATTTTATACCTTAAAAAGAAAAAATTATAATTTTAACAGAGCTTTAGAAAAATTTGAAAAAATATTCAAATCATAAACATAATAACCGATTTATATAGAAAGTTAAGCAATTTTTAGATAAAATCCAAAGCTTATATAAATTTCAAGGATAATCAA (double strand) [rpoD promoter]”, the binding is reported as “binds”.
“TGCCTGCAGGTCGACGATAAGAAATTTGGATCAACTAGCTTAAGCTTTTACGCTTCTTAACTTACTTGGAACACTTCTTGCTTGATCTATCATCAACAATAGATTAAAGGAAGAATCCA (double strand) [PflgI fragment 4]” was tested, and the binding was “binds”.
With “TGCCTGCAGGTCGACGATAATTTAATCATTTTTGAACACCACTCAACCATAAAAACTCCCGAAAAAATCCAAAATTTTCAAAAAGTCAAAGAAAAGAAATTTGGATCAACTAGCTTAAGCTTTTACGCTTCTTAACTTACTTGGAACACTTCTTGCTTGATCTATCATCAACAATAGATTAAAGGAAGAATCCA (double strand) [PflgI fragment 1]” the binding was “binds”.
With “TGCCTGCAGGTCGACGATACCAGTTTCACCACTCGGGCTCATTTTTAAGATTTAAAGCTAAAATTATACTTTTTTAGGCTAAAAAATAACTTTAAAAATAAAAAGTATTTTCAAAAAGACGATATAAAATTATATAATTTAAATTTTTGGAACAGTTATTGCTTTTGTTTATTAGCAATATTTGAAAAGATTTTAACTTTAATACTTTAGAGGAAA (double strand) [flgL promoter]” the binding was “no binding”.
For “TGCCTGCAGGTCGACGATAGAAAATTTAGATTTAAAGACTTTAAATTTAATCATTTTTGAACACCACTCAACCATAAAAACTCCCGAAAAAATCCAAAATTTTCAAAAAGTCAAAGAAAAGAAATTTGGATCAACTAGCTTAAGCTTTTACGCTTCTTAACTTACTTGGAACACTTCTTGCTTGATCTATCATCAACAATAGATTAAAGGAAGAATCCA (double strand) [flgI promoter (PflgI, 201 bp)]”, the binding was “binds”.
For “TGCCTGCAGGTCGACGATCAACCATAAAAACTCCCGAAAAAATCCAAAATTTTCAAAAAGTCAAAGAAAAGAAATTTGGATCAACTAGCTTAAGCTTTTACGCTTCTTAACTTACTTGGAACACTTCTTGCTTGATCTATCATCAACAATAGATTAAAGGAAGAATCCA (double strand) [PflgI fragment 2]”, the binding was “binds”.
In the case of “TGCCTGCAGGTCGACGATGCTTTTACGCTTCTTAACTTACTTGGAACACTTCTTGCTTGATCTATCATCAACAATAGATTAAAGGAAGAATCCA (double strand) [PflgI fragment 5]”, the binding is reported as “no binding”.
“TGCCTGCAGGTCGACGATGGGTGTGATTTTGGTAATTTTCATTACACAAAAGACCAAAGCTTCATAAACTCCCAAAATACCTTTAAATTTTTTCTATAAATTTTTAAAAAATTTCAAAAGTTGGAACAGAACTTGCTTGTAAACTTCACATAAACGCAAAAGTTTTTTAAAGCCAAAGCGTTAAATTTTTTAAAGCAATATTTTATAAAGGATTTAAGA (double strand) [flgE promoter]” was tested, and the binding was “no binding”.
With “TGCCTGCAGGTCGACGATTGCAGATGCAAACATTAAAAATCCTTTAAATTTAGAATTCTTAGGTCATTTAAGCGCTTCTAAAGATGTAAGTGGTAGTATTAAAAAAAGAACTTTATTTAGCGATGAAAACACAGCCTCAAGTGATGAGATTAAAGCCCTAGCTTCCAAGCTTTTATATAGATTGGAACGGAAAGTGCTTGATA (double strand) [fliA promoter]” the binding was “binds”.
“TGGATTCTTCCTTTAATCTATTGTTGATGATAGATCAAGCAAGAAGTGTTCCAAGTAAGTTAAGAAGCGTAAAAGCTTAAGCTAGTTGATCCAAATTTCTTTTCTTTGACTTTTTGAAAATTTTGGATCGTCGACCTGCAGGCA (double strand) [PflgI fragment 3]” was tested, and the binding was “binds”.
With “TTCTTTGACTTTTTGAAAATTTTGGATTTTTTCGGGAGTTTTTATGGTTGAGTGGTGTTCAAAAATGATTAAATTTAAAGTCTTTAAATCTAAATTTTCTATCGTCGACCTGCAGGCA (double strand) [PflgI fragment 6]” the binding was “no binding”.
In the case of “TTTAAATCCTTTTAAATAATTTCAAACTCATCCATGAGCTTGTTAAATGCTATATCGTTACTTTTTTTAAAAATTTATACCTTAAACTAAAAAATTATAAATATCGCATTTTAATTGGAATCTGCAAATAAAAATTTCAAGCCACTGTTTATAAAATGTCAAGTATATTAATAAATACTCTCTTTCATCTTCAATTATCGTCGACCTGCAGGCA (double strand) [flaA promoter]”, the binding is reported as “no binding”.
